Reference: PMC11784142, “About bacteriophage tail terminator and tail completion proteins: structure of the proximal extremity of siphophage T5 tail” (Journal of Virology, 2024)

B1: tail terminator protein p142 of bacteriophage T5 (natural protein, UniProt Q6QGE1 1-161, looked up)
chain: MDHRTSIAQAMVDRISKQMDGSQPDEYFNNLYGNVSRQTYKFEEIREFPYVAVHIGTETGQYLPSGQQWMFLELPILVYDKEKTDIQEQLEKLVADIKTVIDTGGNLEYTVSKPNGSTFPCEATDMIITSVSTDEGLLAPYGLAEINVTVRYQPPRRSLRR
notes: tail terminator protein p142 (TrP) of bacteriophage T5; a 161-residues protein; model compared over 156 residues; Native phage-encoded protein as it stands in the purified tail; hexameric ring that caps the tail tube; also called TrP_(p142); Trp_(p142); source: E. coli strain F infected with the mutant phage T5D20am30d; part of purified T5 tails (PEG precipitation, glycerol step gradient, ion …)
B2: distal tail protein pb9 of bacteriophage T5 (natural protein, UniProt Q6QGE8 1-204, looked up)
chain: MRLPDPYTNPEYPGLGFESVNLVDNDPMIRDELPNGKVKEVKISAQYWGINISYPELFPDEYAFLDSRLLEYKRTGDYLDVLLPQYEAFRVRGDTKSVTIPAGQKGSQIILNTNGTLTGQPKAGDLFKLSTHPKVYKITNFSSSGNVWNISLYPDLFITTTGSEKPVFNGILFRTKLMNGDSFGSTLNNNGTYSGISLSLRESL
notes: distal tail protein pb9 (DTP) of bacteriophage T5; Native protein of the purified tail tip; hexamer; also called DTPpb9; source: E. coli strain F infected with the mutant phage T5D20am30d; part of purified T5 tails
B3: tail tube protein pb6 of bacteriophage T5 (natural protein, UniProt Q6QGE2 1-464, looked up)
chain: MSLQLLRNTRIFVSTVKTGHNKTNTQEILVQDDISWGQDSNSTDITVNEAGPRPTRGSKRFNDSLNAAEWSFSTYILPYKDKNTSKQIVPDYMLWHALSSGRAINLEGTTGAHNNATNFMVNFKDNSYHELAMLHIYILTDKTWSYIDSCQINQAEVNVDIEDIGRVTWSGNGNQLIPLDEQPFDPDQIGIDDETYMTIQGSYIKNKLTILKIKDMDTNKSYDIPITGGTFTINNNITYLTPNVMSRVTIPIGSFTGAFELTGSLTAYLNDKSLGSMELYKDLIKTLKVVNRFEIALVLGGEYDDERPAAILVAKQAHVNIPTIETDDVLGTSVEFKAIPSDLDAGDEGYLGFSSKYTRTTINNLIVNGDGATDAVTAITVKSAGNVTTLNRSATLQMSVEVTPSSARNKEVTWAITAGDAATINATGLLRADASKTGAVTVEATAKDGSGVKGTKVITVTAGG
notes: tail tube protein pb6 (TTP) of bacteriophage T5; structures compared over the 464 residues; Native phage-encoded protein as it stands in the purified tail; trimeric ring (last ring of the tube, under the p142 ring); also called TTPpb6; source: E. coli strain F infected with the mutant phage T5D20am30d; part of purified T5 tails (PEG precipitation, glycerol step gradient, ion exchange)
B4: tail completion protein p143 of bacteriophage T5 (natural protein, UniProt Q6QGE0 1-255, looked up)
chain: MSLSDLARQIIKEQLDTASRSENNKNTVVYSVETGLKDPTRDGTVAQVSFKFSKPVSQDLLNIRTASILKAVSSSLDLSGDLGALENLIQATAGKKSSVGKKRSTGRVQVNFGDPSDVEDGYSGAVTGASGRFVSNSNMKIILEIVAKEYLIKDMKKAGAPLKFRTGRFANSLKIKDVMLRDSETSKGSPELNVTYNYMTRPYSVFNPAVSTYRRLSLRPYPGARNPQKLIGEAIAKAARDLIHSRYKIKVNQGT
notes: tail completion protein p143 (TCP) of bacteriophage T5; 27.8 kDa, 255 residues; Native protein of the purified tail; the density was assigned to it by the fit of an AlphaFold2 model and because it was the only tail protein not yet localised; also called TCP_(p143); Neck1; source: E. coli strain F infected with the mutant phage T5D20am30d; part of purified T5 tails
B5: Baseplate Hub Protein pb3 of bacteriophage T5 (natural protein, UniProt Q6QGE9 1-949, looked up)
chain: MKKILDSAKNYLNTHDKLKTACLIALELPSSSGSAATYIYLTDYFRDVTYNGILYRSGKVKSISSHKQNRQLSIGSLSFTITGTAEDEVLKLVQNGVSFLDRGITIHQAIINEEGNILPVDPDTDGPLLFFRGRITGGGIKDNVNTSGIGTSVITWNCSNQFYDFDRVNGRYTDDASHRGLEVVNGTLQPSNGAKRPEYQEDYGFFHSNKSTTILAKYQVKEERYKLQSKKKLFGLSRSYSLKKYYETVTKEVDLDFNLAAKFIPVVYGVQKIPGIPIFADTELNNPNIVYVVYAFAEGEIDGFLDFYIGDSPMICFDETDSDTRTCFGRKKIVGDTMHRLAAGTSTSQPSVHGQEYKYNDGNGDIRIWTFHGKPDQTAAQVLVDIAKKKGFYLQNQNGNGPEYWDSRYKLLDTAYAIVRFTINENRTEIPEISAEVQGKKVKVYNSDGTIKADKTSLNGIWQLMDYLTSDRYGADITLDQFPLQKVISEAKILDIIDESYQTSWQPYWRYVGWNDPLSENRQIVQLNTILDTSESVFKNVQGILESFGGAINNLSGEYRITVEKYSTNPLRINFLDTYGDLDLSDTTGRNKFNSVQASLVDPALSWKTNSITFYNSKFKEQDKGLDKKLQLSFANITNYYTARSYADRELKKSRYSRTLSFSVPYKFIGIEPNDPIAFTYERYGWKDKFFLVDEVENTRDGKINLVLQEYGEDVFINSEQVDNSGNDIPDISNNVLPPRDFKYTPTPGGVVGAIGKNGELSWLPSLTNNVVYYSIAHSGHVNPYIVQQLENNPNERMIQEIIGEPAGLAIFELRAVDINGRRSSPVTLSVDLNSAKNLSVVSNFRVVNTASGDVTEFVGPDVKLAWDKIPEEEIIPEIYYTLEIYDSQDRMLRSVRIEDVYTYDYLLTYNKADFALLNSGALGINRKLRFRIRAEGENGEQSVGWATI
notes: Baseplate Hub Protein pb3 (BHP) of bacteriophage T5; Native protein of the purified tail tip; trimer; also called BHPpb3; source: E. coli strain F infected with the mutant phage T5D20am30d; part of purified T5 tails

Legend:
[1] = target: the molecule itself; test: cryo-EM structure; proximal extremity of native T5 tails (assembled in infected E. coli, purified as whole tails); single particle analysis, C3 symmetry imposed, 3.88 Å
[2] = target: the molecule itself; test: cryo-EM structure; tail tip of native purified T5 tails; particles recentred on the lower part of BHPpb3, symmetry relaxation, no symmetry imposed; 6–10 Å in the area of the additional density; AlphaFold2 model of TCP_(p143) flexibly fitted
[3] = target: B5; test: as above; details: partners not purified

Binder | stoichiometry N [1] | stoichiometry N [2] | also measured
B1 | 6 | – | –
B2 | – | 6 | –
B3 | 3 | – | –
B4 | – | – | stoichiometry N [3]: 1 copy per phage
B5 | – | 3 | –
